We go through 2 molecules from paper doi:10.1101/2020.04.07.029496 (bioRxiv, 2020).

Assay [1] has as its target E. gossypii Tip20 (residues 1-672) (E. gossypii). As to the kind of experiment: ITC. In general terms: In ITC the heat of successive injections is recorded.
The target in assay [2] is T1, S. cerevisiae Tip20_(I481D,L585D) (S. cerevisiae, UniProt P33891 1-701, I481D | L585D).
T1 sequence: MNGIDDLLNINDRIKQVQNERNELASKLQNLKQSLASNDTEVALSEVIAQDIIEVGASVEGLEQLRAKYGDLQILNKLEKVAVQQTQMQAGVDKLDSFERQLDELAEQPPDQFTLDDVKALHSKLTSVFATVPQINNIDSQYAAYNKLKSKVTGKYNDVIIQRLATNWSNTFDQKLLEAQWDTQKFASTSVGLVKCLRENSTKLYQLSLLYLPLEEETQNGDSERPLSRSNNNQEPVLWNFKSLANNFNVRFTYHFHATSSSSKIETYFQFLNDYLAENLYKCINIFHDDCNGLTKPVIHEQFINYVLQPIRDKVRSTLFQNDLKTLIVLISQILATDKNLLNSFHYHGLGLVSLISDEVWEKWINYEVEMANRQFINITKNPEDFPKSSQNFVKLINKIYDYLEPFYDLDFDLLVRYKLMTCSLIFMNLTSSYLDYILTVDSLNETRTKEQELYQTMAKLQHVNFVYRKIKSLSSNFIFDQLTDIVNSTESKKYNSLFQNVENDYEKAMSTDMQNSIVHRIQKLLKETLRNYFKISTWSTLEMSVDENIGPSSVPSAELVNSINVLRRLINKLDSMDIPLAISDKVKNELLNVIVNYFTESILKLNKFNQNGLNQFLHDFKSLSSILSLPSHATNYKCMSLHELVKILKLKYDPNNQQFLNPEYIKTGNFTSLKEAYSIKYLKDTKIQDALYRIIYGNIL
As to the kind of experiment: ITC.

“E. gossypii MBP-Sec20NTD (domain or fragment)”: the Kd (usually the free concentration of one partner at which half of the binding sites on the other are occupied at equilibrium, for simple one-to-one binding) in assay [1] came out at 100 nM.

B1: S. cerevisiae Sec20_(1-174) (domain or fragment, UniProt P28791 1-174, looked up)
chain: MVVTFLQDLEVLQDALLNNLQKLSAISRRKESGESKHDNKDSFAAIANEHNDEEEEIEFEDLVNIIESKVSDFESVLKCSIVEMTYKYPELKLQWEKSPRYDQCDKLHIVKLDKQMNEDIYAQLVEELDFVLQFVDWFYCYRLKVKEILRQHHKRDLAWNDEKRDRAIKFHAVD
In the case of B1, the “fold increase in KD against wild-type Tip20” value in assay [2] turned out to be 15 fold.
